Data published in patent publication US11911450B2, “Method for managing pain” (UNIVERSITY OF MIAMI, priority 2017, dated 2024).
Entries after “also recorded” stand apart in the source; their conditions may differ.

B1: Car10: carbonic anhydrase 10, rodent ortholog, overexpressed (V5-tagged) protein (protein)
chain: MEIVWEVLFLLQANFIVCISAQQNSPKIHEGWWAYKEVVQGSFVPVPSFWGLVNSAWNLCSVGKRQSPVNIETSHMIFDPFLTPLRINTGGRKVSGTMYNTGRHVSLRLDKEHLVNISGGPMTYSHRLEEIRLHFGSEDSQGSEHLLNGQAFSGEVQLIHYNHELYTNVTEAAKSPNGLVVVSIFIKVSDSSNPFLNRMLNRDTITRITYKNDAYLLQGLNIEELYPETSSFITYDGSMTIPPCYETASWIIMNKPVYITRMQMHSLRLLSQNQPSQIFLSMSDNFRPVQPLNNRCIRTNINFSLQGKDCPNNRAQKLQYRVNEWLLK
modifications: left off: small tags and cut ends
notes: carbonic anhydrase 10, rodent ortholog, overexpressed (V5-tagged) protein
B2: CA10: human carbonic anhydrase 10, overexpressed (V5-tagged) protein; SEQ ID NO: 9 (protein)
chain: B1 chain
modifications: V5 tag

How the values were obtained:
ITPR1 = ITPR1 (Homo sapiens, UniProt Q14643); experiment: co-immunoprecipitation / western blot with ITPR1 and pITPR1; format: binding; set-up: before and after forskolin stimulation of HEK293 cells was conducted; endogenous in cells; host or cells: HEK293 (ATCC CRL-1573); conditions: HEK293 cells, before and after forskolin stimulation
ITPR1, sequence (Q14643 whole entry): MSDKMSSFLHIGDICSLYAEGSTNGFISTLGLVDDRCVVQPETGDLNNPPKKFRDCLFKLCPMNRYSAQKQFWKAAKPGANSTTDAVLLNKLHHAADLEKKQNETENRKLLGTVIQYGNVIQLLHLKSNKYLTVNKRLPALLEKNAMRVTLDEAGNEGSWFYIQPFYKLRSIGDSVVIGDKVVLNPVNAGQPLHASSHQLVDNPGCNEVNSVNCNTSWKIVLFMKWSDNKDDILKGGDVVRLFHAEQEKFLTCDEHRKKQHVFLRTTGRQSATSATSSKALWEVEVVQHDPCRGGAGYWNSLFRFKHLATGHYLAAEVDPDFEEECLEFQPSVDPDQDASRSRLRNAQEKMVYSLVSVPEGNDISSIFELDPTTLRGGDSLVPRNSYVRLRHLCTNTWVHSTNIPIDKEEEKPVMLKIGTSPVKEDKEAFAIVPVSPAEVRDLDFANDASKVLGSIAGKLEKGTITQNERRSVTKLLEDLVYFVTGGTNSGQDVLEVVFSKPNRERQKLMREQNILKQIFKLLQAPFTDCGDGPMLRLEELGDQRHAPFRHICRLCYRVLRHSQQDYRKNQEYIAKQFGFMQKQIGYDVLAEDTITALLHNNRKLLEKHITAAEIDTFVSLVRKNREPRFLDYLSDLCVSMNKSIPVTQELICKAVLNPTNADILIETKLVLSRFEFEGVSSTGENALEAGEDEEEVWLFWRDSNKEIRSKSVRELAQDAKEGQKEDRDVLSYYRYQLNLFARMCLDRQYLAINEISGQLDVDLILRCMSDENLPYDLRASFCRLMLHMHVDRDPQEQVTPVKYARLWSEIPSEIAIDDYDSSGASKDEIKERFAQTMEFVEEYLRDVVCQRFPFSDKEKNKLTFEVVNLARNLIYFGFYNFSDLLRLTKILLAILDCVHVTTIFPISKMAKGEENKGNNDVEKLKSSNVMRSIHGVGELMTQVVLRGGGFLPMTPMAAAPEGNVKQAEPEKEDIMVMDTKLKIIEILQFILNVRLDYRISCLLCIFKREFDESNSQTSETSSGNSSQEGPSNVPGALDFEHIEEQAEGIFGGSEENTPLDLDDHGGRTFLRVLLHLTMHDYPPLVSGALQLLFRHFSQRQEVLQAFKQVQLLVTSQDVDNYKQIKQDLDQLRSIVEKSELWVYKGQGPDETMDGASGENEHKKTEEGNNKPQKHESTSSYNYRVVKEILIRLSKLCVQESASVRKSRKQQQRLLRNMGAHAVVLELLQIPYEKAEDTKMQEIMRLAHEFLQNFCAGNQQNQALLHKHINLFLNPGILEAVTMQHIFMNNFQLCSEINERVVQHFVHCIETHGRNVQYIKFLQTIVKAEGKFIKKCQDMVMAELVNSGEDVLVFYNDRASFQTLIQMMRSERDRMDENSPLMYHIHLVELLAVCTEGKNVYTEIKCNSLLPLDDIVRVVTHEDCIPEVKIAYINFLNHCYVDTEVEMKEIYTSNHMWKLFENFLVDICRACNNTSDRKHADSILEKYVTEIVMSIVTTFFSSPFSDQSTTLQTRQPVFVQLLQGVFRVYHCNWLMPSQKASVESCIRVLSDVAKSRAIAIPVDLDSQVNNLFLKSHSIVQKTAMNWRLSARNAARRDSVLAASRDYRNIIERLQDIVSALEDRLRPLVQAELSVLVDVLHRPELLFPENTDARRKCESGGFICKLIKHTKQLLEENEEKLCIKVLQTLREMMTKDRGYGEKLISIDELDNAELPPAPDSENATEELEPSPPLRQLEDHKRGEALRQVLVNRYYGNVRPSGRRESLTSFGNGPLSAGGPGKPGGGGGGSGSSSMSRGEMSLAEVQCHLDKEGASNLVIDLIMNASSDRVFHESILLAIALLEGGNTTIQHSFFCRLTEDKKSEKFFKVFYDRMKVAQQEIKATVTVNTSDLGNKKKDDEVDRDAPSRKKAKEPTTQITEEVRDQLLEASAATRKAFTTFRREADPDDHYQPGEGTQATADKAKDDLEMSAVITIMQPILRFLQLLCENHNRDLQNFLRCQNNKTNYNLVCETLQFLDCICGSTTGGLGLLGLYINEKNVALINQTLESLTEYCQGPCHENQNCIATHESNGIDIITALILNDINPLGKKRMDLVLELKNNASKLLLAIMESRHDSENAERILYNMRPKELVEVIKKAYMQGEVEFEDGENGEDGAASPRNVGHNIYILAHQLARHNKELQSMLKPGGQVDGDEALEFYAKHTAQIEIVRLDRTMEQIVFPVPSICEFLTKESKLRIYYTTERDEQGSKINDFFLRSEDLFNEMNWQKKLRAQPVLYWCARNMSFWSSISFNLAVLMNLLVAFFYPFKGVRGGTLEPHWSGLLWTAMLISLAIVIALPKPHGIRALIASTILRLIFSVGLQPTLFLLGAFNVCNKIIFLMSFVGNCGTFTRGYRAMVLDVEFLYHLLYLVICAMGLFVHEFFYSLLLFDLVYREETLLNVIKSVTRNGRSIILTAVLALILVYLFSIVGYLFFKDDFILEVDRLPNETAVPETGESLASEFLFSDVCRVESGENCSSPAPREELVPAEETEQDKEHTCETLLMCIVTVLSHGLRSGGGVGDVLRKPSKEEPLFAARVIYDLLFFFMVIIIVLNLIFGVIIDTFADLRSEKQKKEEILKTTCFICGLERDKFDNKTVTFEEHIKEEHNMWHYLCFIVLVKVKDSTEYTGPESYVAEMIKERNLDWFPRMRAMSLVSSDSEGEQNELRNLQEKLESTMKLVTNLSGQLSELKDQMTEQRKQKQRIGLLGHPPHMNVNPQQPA
Procedure: Immunoprecipitation: Fifty μl magnetic beads (Invitrogen) were incubated with 1 μg pITPR1 antibody for 45 minutes at 4° C. The supernatant was discarded and the beads were washed with binding buffer. Sample proteins of 200-400 μg were added and incubated with the beads for 4 hrs at 4° C. Then the protein complex was washed 3 times with washing buffer, and then eluted with SDS sample buffer. Samples were then heated at 70° C. for 10 min and then subjected to western blot analysis for Car10. The method described herein also is suitable for use in connection with Car8, CA8, CA8 fragment (CA8-204), CA10, Car11 and CA11.
Overexpression of V5-Car10 and V5-CA10 inhibits ATP-induced free calcium release in vitro: ITPR1 contains functionally distinct domains, including the ‘modulatory’ domain responding to intracellular modulators such as calcium, calmodulin, ATP, and carbonic anhydrase-8 (Car8). ATP increases ITPR1-dependent calcium release by increasing the open probability of the channel in the presence of activating concentrations of IP3 and calcium. It is believed that Car8-mediated inhibition of ITPR1 activation and ATP-mediated calcium release requires binding to this modulatory domain. Therefore, the ability of CA8 fragments (e.g., CA8-204), Car10 and CA10 to bind to ITPR1 and pITPR1 was examined. […]

[1] = system: ITPR1 phosphorylation (pITPR1) at Ser-1755; experiment: forskolin-induced ITPR1 phosphorylation (pITPR1) in transfected HEK293 cells; format: cell-based, human; conditions: 1 μM forskolin; for forskolin-induced ITPR1 phosphorylation (pITPR1), western blot: overexpression vs empty vector; for pITPR1 by IHC in response to forskolin: vs empty vector (AAV-null)
Procedure: Cell culture and transfections: Human neuronal-derived (e.g., NBL), human non-neuronal derived (e.g., HEK293) cells, or dispersed rodent primary DRG cells can be used. HEK293 cells (cat #CRL-1573 ATCC Manassas, VA) were cultured in Dulbecco's modified Eagle's medium (DMEM-Glutamax cat #0566; Invitrogen) supplemented with 10% fetal bovine serum, FBS (cat #16140 ThermoFisher scientific, Waltham, MA) and 1% penicillin/streptomycin (cat #15140 ThermoFisher scientific, Waltham, MA). Cells were seeded in six-well plates at density of 1.0×10^5 cells per well. The following day, cells were transfected with plasmids via lipofectamine LTX reagent and plus (cat #15338 ThermoFisher scientific, Waltham, MA). For each transfection 2 μg of AAV2-ITR (control), AAV2-V5-Car10, or AAV2-V5-CA10 vectors was used. In various embodiments of the disclosure described herein, 2 μg of expression vectors (including positive and negative controls) in instances when AAV2 is not the viral vector employed.
Immunohistochemistry (IHC): HEK293 cells were seeded in poly-L-Lysine/laminin coated glass coverslips at a density of per coverslip, 24 hrs later cells were transfected with Car10, CA10 or empty vector respectively. Cells were cultured at 37° C. for an additional 96 hrs, then treated with forskolin 1 μM (F6886 Sigma, St. Louis, MO) for 5 min, then fixed with 4% paraformaldehyde for 15 min, permeabilized with 0.1% Triton X-100 for 10 min, and blocked with 1% bovine serum albumin (BSA, sigma) for 1 h. Cells were then incubated with anti-pITPR1 (cat #8548s cell signaling technology), anti-Car10 (cat #SAB1102286 Sigma, St Louis, MO), anti-V5 (cat #R960 Invitrogen), anti-ITPR1 (cat #8568 Cell Signaling technology) antibody overnight at 4° C. The next day, cells were incubated with the corresponding second antibody (1:200) for 1 h at room temperature in the dark. Coverslips were dried and affixed to slides using a fluorescent mounting medium containing Dapi (cat #P36931 Life Technologies). It will be understood that IHC methods also are contemplated using anti-Car8, anti-CA8, anti-CA8 fragment (CA8-204), anti-CA10, anti-Car11 and anti-CA11 antibodies.
HEK293 cells were transfected using AAV8-V5 vectors overexpressing Car10 and CA10, an empty vector and vehicle served as controls. A V5 sequence was inserted at the Car10 or CA10 C-terminal region in order to differentiate between exogenous and endogenous CA10/Car10 expression. […] Using the V5 tag, protein overexpression was detected following V5-Car10 and V5-CA10 vector transfection (FIG. 1B).
In order to examine the role of CA10 in the regulation of ITPR1 phosphorylation (pITPR1) that enhances the response of ITPR1 to the IP3 ligand, HEK293 cells were transfected with AAV8-V5-CA10 vectors. […]

[2] = morphine dose vs paw withdrawal latency; format: in vivo, mouse; conditions: allometric conversion to 60 kg human
Procedure: Behavioral tests: Thermal and mechanical sensitivity was measured by Hargreaves test and von Frey filament threshold calculations respectively. See, e.g., Boyce-Rustay et al. Methods Mol Biol. 2010; 617:41-55; Hargreaves et al., Pain. 1988; 32(1):77-88; and Chaplan et al., J Neurosci Methods. 1994; 53(1):55-63. Tests were performed in a quiet room with daylight-like illumination. Animals were habituated to the behavioral room and apparatus for at least 60 minutes for 1 week before a blinded investigator collected data. The thermal sensitivity test was performed using an IITC Plantar Analgesia Meter apparatus (IITC Life sciences, Woodland Hills, CA) with a plastic box placed on a glass plate of constant temperature (30° C.). The mouse plantar surface was exposed to a beam of radiant heat to induced paw withdrawal. Baseline latencies were adjusted to 5-9 sec with a maximum of 20 sec as cutoff to prevent potential injury. The latency time in seconds from the onset of the intense light beam to paw withdrawal was defined as the withdrawal latency of the paw. […] The mouse hind paw was pressed with one of a series of von Frey filaments with logarithmically incrementing stiffness (Stoelting Co, Wood Dale, IL) presented perpendicular to the plantar surface of each hind paw for 1-2 seconds, the 50% threshold was determined using the Up- and Down method.

| Molecule | binding to ITPR1 (co-immunoprecipitation) (ITPR1) | forskolin-induced ITPR1 phosphorylation (pITPR1), western blot [1] | pITPR1 by IHC in response to forskolin [1] | paw withdrawal latency elevation compared to morphine human oral equivalent dose [2] |
| --- | --- | --- | --- | --- |
| B1 | do not bind to ITPR1 | reduced forskolin-induced ITPR1 phosphorylation; also recorded: inhibited forskolin-induced pITPR1 | no increase in pITPR1 | produces profound analgesia |
| B2 | do not bind to ITPR1 | reduced forskolin-induced ITPR1 phosphorylation; also recorded: inhibited forskolin-induced pITPR1 | no increase in pITPR1 | produces profound analgesia |
